Laboratory results reported in patent publication US20130224190A1 (INTERNATIONAL DRUG DEVELOPMENT BIOTECH, published 2013).

Target: T1, human C1q (human, UniProt P02745 23-245; P02746 28-253; P02747 29-245)
T1 construct: The assay used recombinant human C1q (Abd Serotec, 0.2 ug/ml) or C1q from natural human complement (Sigma); It was detected with sheep anti-human C1q-peroxidase on plates coated with the MAb; also called recombinant human C1q; human complement
Assay: ELISA, C1q on coated MAb
Description: The binding of human recombinant C1q was assessed by an ELISA binding assay. […] Data represent mean+/−SD of two independent experiments.
Complement binding assay: The binding of human C1q to MAbs was assessed by an ELISA binding assay. The 96-well plates (Nunc) were coated overnight at 4° C. with varying MAb concentrations. After washing, the plates were blocked with PBS-5% BSA for 1 h, and incubated for 1 h with 0.2 μg/ml of recombinant human C1q (Abd Serotec) or 2.5 μl of natural human complement (Sigma). Then, 100 μl of a 1/500 dilution of sheep anti-human C1q peroxidase-conjugated Ab (Abd Serotec) added and incubated for 1 h. The plates were developed with 100 μl per well of TMB substrate (Uptima Interchim). After H₂S0₄ addition, the OD was measured at 450 nm/630 nm using a MRX II microplate reader.

T1 sequence (P02745 23-245 limits assumed, chain 1 of 3): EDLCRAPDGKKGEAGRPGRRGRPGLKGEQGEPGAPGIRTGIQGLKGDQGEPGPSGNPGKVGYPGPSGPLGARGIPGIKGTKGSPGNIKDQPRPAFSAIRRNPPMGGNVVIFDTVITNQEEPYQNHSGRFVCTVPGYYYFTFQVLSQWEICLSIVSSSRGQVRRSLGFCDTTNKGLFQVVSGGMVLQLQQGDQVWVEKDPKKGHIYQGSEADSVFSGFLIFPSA
T1 sequence (P02746 28-253 limits assumed, chain 2 of 3): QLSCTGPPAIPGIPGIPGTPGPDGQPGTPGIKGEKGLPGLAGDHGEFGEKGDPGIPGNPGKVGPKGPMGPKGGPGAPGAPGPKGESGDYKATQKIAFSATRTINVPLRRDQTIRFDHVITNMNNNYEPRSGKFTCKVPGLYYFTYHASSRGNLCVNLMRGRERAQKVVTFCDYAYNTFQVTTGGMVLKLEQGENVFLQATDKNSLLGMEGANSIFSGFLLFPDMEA
T1 sequence (P02747 29-245 limits assumed, chain 3 of 3): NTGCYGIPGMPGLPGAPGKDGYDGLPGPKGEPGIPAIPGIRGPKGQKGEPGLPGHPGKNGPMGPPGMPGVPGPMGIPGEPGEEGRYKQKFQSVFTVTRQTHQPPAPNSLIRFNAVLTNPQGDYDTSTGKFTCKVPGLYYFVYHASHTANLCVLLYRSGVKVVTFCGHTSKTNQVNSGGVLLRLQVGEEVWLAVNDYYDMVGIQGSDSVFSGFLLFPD

Row | binding result | Binder
1 | binds | chR005-1 Fc24 (antibody, Chimeric human IgG1 with variant Fc24 (F243L/R292P/Y300L/V305L/K326A/E333A/P396L against Fc0); also called chR005-1 Fc24 MAb; Fc24 optimized chR005-1 MAb; not shown: human light chain constant region) heavy: QVQLQQSGAELVRPGSSVKISCKASGYAFSSYWVNWMKQRPGQGLEWIGQIYPGDGDTNYNGKFKGRATVTADKSSSTSYMQFSSLTSEDSAVYFCARSITTVVGCAMDYWGQGTSVTVSSASTKGPSVFPLAPSSKSTSGGTAALGCLVKDYFPEPVTVSWNSGALTSGVHTFPAVLQSSGLYSLSSVVTVPSSSLGTQTYICNVNHKPSNTKVDKKVEPKSCDKTHTCPPCPAPELLGGPSVFLLPPKPKDTLMISRTPEVTCVVVDVSHEDPEVKFNWYVDGVEVHNAKTKPPEEQYNSTLRVVSLLTVLHQDWLNGKEYKCKVSNAALPAPIAKTISKAKGQPREPQVYTLPPSRDELTKNQVSLTCLVKGFYPSDIAVEWESNGQPENNYKTTPLVLDSDGSFFLYSKLTVDKSRWQQGNVFSCSVMHEALHNHYTQKSLSLSPGK light: DIQMTQSSAYLSVSLGGRVTITCKASDHINNWLAWYQHKPGNAPRLLISGATTLETGVPSRFSGSGSGKDYTLSITSLQTEDVATYYCQQSWNTPWTFGGGTK
2 | binds | chR005-1 Fc34 (antibody, Chimeric human IgG1 with variant Fc34 (F243L/R292P/Y300L/V305L/K326A/P396L against Fc0); also called chR005-1 Fc34 MAb; Fc34 LPLLAL; not shown: human light chain constant region) heavy: QVQLQQSGAELVRPGSSVKISCKASGYAFSSYWVNWMKQRPGQGLEWIGQIYPGDGDTNYNGKFKGRATVTADKSSSTSYMQFSSLTSEDSAVYFCARSITTVVGCAMDYWGQGTSVTVSSASTKGPSVFPLAPSSKSTSGGTAALGCLVKDYFPEPVTVSWNSGALTSGVHTFPAVLQSSGLYSLSSVVTVPSSSLGTQTYICNVNHKPSNTKVDKKVEPKSCDKTHTCPPCPAPELLGGPSVFLLPPKPKDTLMISRTPEVTCVVVDVSHEDPEVKFNWYVDGVEVHNAKTKPPEEQYNSTLRVVSLLTVLHQDWLNGKEYKCKVSNAALPAPIEKTISKAKGQPREPQVYTLPPSRDELTKNQVSLTCLVKGFYPSDIAVEWESNGQPENNYKTTPLVLDSDGSFFLYSKLTVDKSRWQQGNVFSCSVMHEALHNHYTQKSLSLSPGK light: DIQMTQSSAYLSVSLGGRVTITCKASDHINNWLAWYQHKPGNAPRLLISGATTLETGVPSRFSGSGSGKDYTLSITSLQTEDVATYYCQQSWNTPWTFGGGTK
